Usually Kd stands for the free concentration of one partner at which half of the binding sites on the other are occupied at equilibrium, for simple one-to-one binding. By EC50 (read off the curve) is commonly meant the concentration that produces a half-maximal response. Low values mean greater potency, high ones weaker potency. Broadly, the EC50 is the concentration needed to bring the measured effect to its halfway point. Read a high EC50 as weaker potency.

To fix the notation:
T1: mouse SIRPβ1 on CHO cells (mouse)
T1 construct: Whole entry
T1 chain: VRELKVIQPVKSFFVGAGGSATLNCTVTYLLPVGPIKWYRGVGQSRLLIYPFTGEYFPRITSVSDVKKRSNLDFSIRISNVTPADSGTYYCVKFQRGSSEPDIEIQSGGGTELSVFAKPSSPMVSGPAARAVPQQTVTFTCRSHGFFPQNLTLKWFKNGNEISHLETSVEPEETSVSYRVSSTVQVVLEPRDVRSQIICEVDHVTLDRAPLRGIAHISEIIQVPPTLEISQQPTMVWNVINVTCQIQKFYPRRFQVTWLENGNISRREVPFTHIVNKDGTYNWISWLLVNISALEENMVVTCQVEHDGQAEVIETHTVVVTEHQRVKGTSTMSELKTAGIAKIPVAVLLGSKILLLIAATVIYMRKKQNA

T2: mouse SIRPα on cells (mouse, UniProt P97797 32-513)
T2 construct: whole, on cells
T2 sequence (looked up): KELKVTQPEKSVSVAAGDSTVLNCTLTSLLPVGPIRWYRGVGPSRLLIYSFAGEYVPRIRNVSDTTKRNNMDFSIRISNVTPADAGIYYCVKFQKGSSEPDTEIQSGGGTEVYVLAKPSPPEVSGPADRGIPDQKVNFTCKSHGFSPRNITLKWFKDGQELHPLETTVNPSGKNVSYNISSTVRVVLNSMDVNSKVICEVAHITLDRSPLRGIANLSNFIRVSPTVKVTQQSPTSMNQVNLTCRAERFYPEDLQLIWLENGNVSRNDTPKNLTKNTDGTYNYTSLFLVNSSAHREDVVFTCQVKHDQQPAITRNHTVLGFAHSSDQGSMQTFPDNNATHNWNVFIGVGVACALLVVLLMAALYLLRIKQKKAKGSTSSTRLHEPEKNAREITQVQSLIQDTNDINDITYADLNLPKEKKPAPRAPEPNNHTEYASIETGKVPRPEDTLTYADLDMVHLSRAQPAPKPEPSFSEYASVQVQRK

T3: mouse SIRPα D1-Fc (mouse, UniProt P97797 32-150, limits assumed)
T3 construct: domain: D1
T3 sequence (looked up): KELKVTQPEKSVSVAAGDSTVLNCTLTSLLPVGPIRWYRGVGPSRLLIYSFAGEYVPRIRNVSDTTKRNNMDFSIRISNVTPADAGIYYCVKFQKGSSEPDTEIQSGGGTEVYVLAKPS

B1: SB-40-20 (antibody, V domains shown)
VH: QVQLVQSGAEVKKPGASVKVSCKASGYTFTSFYISWVRQAPGQGLEWMGIINPSSGHTNYAQKLQGRVTMTTDTSTSTAYMELSSLRSEDTAVYYCARDTGEYSYSPHGMDVWGQGTTVTVSS
VL: EIVLTQSPATLSLSPGERATLSCRASQSVSSYLAWYQQKPGQAPRLLIYDSSNRATGIPARFSGSGSGTDFTLTISSLEPEDFAVYYCQQRDEHPPWTFGGGTKVEIK
notes: IgG
B2: SB-1-2 (antibody, V domains shown)
VH: QVQLVESGGGVVQPGRSLRLSCAASGFTFGSFGMNWVRQAPGKGLEWVSAITASGGSTFYADSVKGRFTISRDNSKNTLYLQMNSLRAEDTAVYYCAKDFTEVVGWLGMDVWGQGTTVTVSS
VL: EIVMTQSPGTLSLSPGERATLSCRASQSVSSSYLAWYQQKPGQAPRLLIYGASSRATGIPDRFSGSGSGTDFTLTISRLEPEDFAVYYCQLLGSSPRTFGGGTKVEIK
notes: IgG
B3: SB-2-7 (antibody, V domains shown)
VH: EVQLLESGGGLVQPGGSLRLSCAASGFTFARYGMHWVRQAPGKGLEWVSAISGLAGPTYADSVKGRFTISRDNSKNTLYLQMNSLRAEDTAVYYCARDQTAAAAIWGMDVWGQGTTVTVSS
VL: B2 VL with I2V, M4L, L91Q, L92S, G93S, S95H, R97F
notes: IgG
B4: SB-1-3 (antibody, V domains shown)
VH: B2 VH with Q1E, V11L, Q13K, R16G, G30S, S31A, F32Y, A53S, G56R, F59Y
VL: B2 VL
notes: IgG
B5: SB-8-15 (antibody, V domains shown)
VH: QVQLQESGPGLVKPSETLSLTCAVSGYSISAHYYWGWIRQPPGKGLEWIGSIYQSGHTYYNPSLKSRVTISVDTSKNQFSLKLSSVTAADTAVYYCARGGAMTPAGMDVWGQGTTVTVSS
VL: B2 VL with S54N, L91Q, L92V, G93Y, R97Y
notes: IgG
B6: SB-8 (antibody, V domains shown)
VH: B5 VH with A31S, H32G, Q54H, H57S
VL: B2 VL with S54N, L91Q, L92V, G93Y, R97Y
notes: IgG; also called SB-8 (p)
B7: 18D5 (antibody, V domains shown)
VH: QVQLQQPGAELVRPGSSVKLSCKASGYTFTSYWVHWVKQRPIQGLEWIGNIDPSDSDTHYNQKFKDKASLTVDKSSSTAYMQLSSLTFEDSAVYYCVRGGTGTMAWFAYWGQGTLVTVSA
VL: DVVMTQTPLSLPVSLGDQASISCRSSQSLVHSYGNTYLYWYLQKPGQSPKLLIYRVSNRFSGVPDRFSGSGSGTDFTLKISRVEAEDLGVYFCFQGTHVPYTFGSGTKLEIK

Residue numbers refer to the chain shown, from its start.

T6 sequence (O00241 30-398): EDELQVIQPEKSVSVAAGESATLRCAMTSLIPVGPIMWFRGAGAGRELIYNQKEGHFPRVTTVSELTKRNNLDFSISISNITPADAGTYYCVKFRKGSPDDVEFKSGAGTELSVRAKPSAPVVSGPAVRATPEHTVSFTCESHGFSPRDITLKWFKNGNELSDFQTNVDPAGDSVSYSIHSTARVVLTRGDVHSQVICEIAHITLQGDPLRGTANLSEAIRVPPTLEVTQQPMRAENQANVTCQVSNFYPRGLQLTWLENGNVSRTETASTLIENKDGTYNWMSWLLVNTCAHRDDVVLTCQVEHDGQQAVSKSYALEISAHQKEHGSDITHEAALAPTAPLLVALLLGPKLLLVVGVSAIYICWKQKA
T8 sequence (Q5TFQ8 30-371 limits assumed, one chain of several): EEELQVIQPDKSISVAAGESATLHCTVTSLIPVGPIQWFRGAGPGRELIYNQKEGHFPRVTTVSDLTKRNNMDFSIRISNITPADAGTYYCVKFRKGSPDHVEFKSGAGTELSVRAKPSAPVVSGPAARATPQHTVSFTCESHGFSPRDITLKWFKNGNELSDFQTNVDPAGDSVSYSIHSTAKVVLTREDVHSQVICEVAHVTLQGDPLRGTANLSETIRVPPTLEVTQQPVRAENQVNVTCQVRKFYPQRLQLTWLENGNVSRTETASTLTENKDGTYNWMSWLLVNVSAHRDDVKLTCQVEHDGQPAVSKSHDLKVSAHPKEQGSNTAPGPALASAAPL

One test concerns the target T4, human SIRPα domain 1 (D1) Fc fusion (human, UniProt P78324 32-149).
T4 construct: also called human SIRPα D1-Fc; Human SIRPα Fc; not shown: C-terminal human IgG1 Fc
Description: Octet, IgG avid. A general note: BLI is a label-free optical method that tracks binding on a fibre tip over time.
On to B1, for which the binding result is “no binding (tested: 100 nM)”.
On the same count and under the same terms, to B2 belongs “no binding (tested: 100 nM)”.
On the same count and under the same terms, the same measure for B3: “no binding (tested: 100 nM)”.
As for B4, the binding result was “no binding (tested: 100 nM)”.
Same read-out and setting: the same measure for B5: “no binding (tested: 100 nM)”.

Another test deals with T5, human SIRPβ1 domain 1 (D1) Fc fusion (human, UniProt O00241 30-148).
T5 construct: Made in HEK293/T cells with a heterologous signal peptide; also called Human SIRPβ1 D1-Fc; Human SIRPβ1-Fc; not shown: C-terminal human IgG1 Fc
T5 sequence (O00241 30-148 limits assumed): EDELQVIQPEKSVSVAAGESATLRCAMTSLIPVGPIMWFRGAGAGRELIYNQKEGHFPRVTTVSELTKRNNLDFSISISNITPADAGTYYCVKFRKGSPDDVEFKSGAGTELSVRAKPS
Description: Octet, IgG avid.
B6 came in with a Kd of 2.72 nM.

The next test concerns the target T6, human SIRPβ1 isoform 1 on cells (human, UniProt O00241 30-398).
T6 construct: On CHO cells (low level), on BWZ/BW5147.G.1.4 cells (reporter cells co-express human DAP12) or on primary human myeloid cells; also called huSIRPβ1; BWZ-huSIRPβ1
Description: flow cytometry. (In general: Flow cytometry measures light scatter and fluorescence of single cells or particles in a stream.)
Consider B1, for which the FOB was 3 fold over background.
In the case of B2, the FOB amounted to 4 fold over background.
The same measure, in the same setting: to B3 belongs 5 fold over background; to B4, 4 fold over background.
In turn, B5 came in with an FOB of 7 fold over background.
B6: the FOB turned out to be 2 fold over background.

Another test concerns the target T1, mouse SIRPβ1 on CHO cells. Description: flow cytometry.
Consider B1, for which the FOB was 2 fold over background.
The molecule B2 showed an FOB of 1 fold over background.
B3 yielded an FOB of 1 fold over background.
Same read-out and setting: to B4 belongs 2 fold over background.
The same measure, in the same setting: to B5 belongs 1 fold over background; to B6, 2 fold over background.

Another test addresses T7, human SIRPα on cells (human, UniProt P78324 31-504).
T7 construct: Whole entry
Description: flow cytometry.
As for B1, the FOB came out at 1 fold over background.
The molecule B2 returned an FOB of 1 fold over background.
For B3, the FOB is 1 fold over background.
Still for that read-out and setting: to B4 belongs 0 fold over background; to B5, 1 fold over background; to B6, 1 fold over background.

The target in the next test is T7, human SIRPα on cells. Description: flow cytometry on BWZ cells overexpressing human SIRPα, fluorescent secondary antibody, MFI.
Description: (§1) To determine antigen specificity of anti-SIRPβ1 antibodies of the present disclosure, cell-based affinity measurements were performed to ascertain the apparent affinities of affinity-matured anti-SIRPβ 1 antibodies to cell surface-expressed antigen. BW5147.G.1.4 cells, an immortalized mouse T-cell line, were engineered to overexpress human SIRPβ1 (BWZ-huSIRPβ1) or human SIRPα (BWZ-huSIRPα). Jurkat cells, an immortalized human T cell line, endogenously express SIRPγ.
(§2) In these experiments, two antibodies previously described were used as positive controls: antibody 18D5 (an anti-SIRPβ antibody that cross-reacts with SIRPα and SIRPβ) and antibody KWAR23 (an anti-SIRPβ antibody that cross-reacts with SIRPα, SIRPβ, and SIRPγ). These antibodies were recombinantly produced on a human IgG4 backbone. […] Serial dilutions of each of the anti-SIRPβ1 monoclonal antibodies and control antibodies were added to 10⁵ cells and allowed to achieve binding equilibrium at 4° C. After addition of fluorescently-labeled secondary antibody and brief washing steps, MFI values as a function of titrated antibody concentration were recorded via FACS analysis.
(§3) Receptor bound antibodies were detected by staining cells with anti-human IgG PE secondary antibody (Southern Biotech). Curves were fit using nonlinear regression analysis with Graphpad Prism 6 software.
For B7, the concentration giving a half-maximal response (EC50 (read off the curve)) was about 0.2 nM.
For B1, the binding result is recorded as “no binding (tested: Log nM about 0.8 (about 7 nM))”.
Regarding B4, the binding result was “no binding (tested: Log nM about 0.8 (about 7 nM))”.
Same read-out and setting: the same measure for B5: “no binding (tested: Log nM about 0.8 (about 7 nM))”.

The target of another test is T6, human SIRPβ1 isoform 1 on cells. Description: cell binding titration; target not given.
Turning to B1, the EC50 came to 0.405 nM.
Still for that read-out and setting: to B2 belongs 0.059 nM.
The molecule B3 registered a concentration giving a half-maximal response (EC50) of 0.132 nM.
The same measure, in the same setting: to B4 belongs 0.062 nM.
On to B5, for which the response was half-maximal at 0.737 nM (EC50).
Same read-out and setting: the same measure for B6: 0.441 nM.

The next test has as its target T8, human SIRPβ1-Fc isoform 3 (Q5TFQ8) (human, UniProt Q5TFQ8 30-371, limits assumed).
T8 construct: Whole entry named; made in HEK293 cells; also called human SIRPβ1 isoform 3
Description: ELISA on plate-coated huSirpB-Fc (Q5TFQ8.1), anti-human kappa-HRP, A450.
Description: To ascertain if the selected anti-SIRPβ1 antibodies cross-reacted with other isoforms of human SIRPβ1 or with cynomolgus SIRPβ1, recombinant antigens based on human SIRPβ1 isoform 3 sequence and cynomolgus SIRPβ1 isoform 1 sequence were produced by transient transfection in HEK293 cells. Purified, Fc-tagged recombinant proteins were adsorbed onto 96-well plates at 1 μg/mL overnight at 4° C. Plates were subsequently washed with PBS+0.05% Tween-20 and blocked with 1% BSA+PBS for 2 hours at room temperature. Antibodies diluted in blocking buffer at 1 μg/mL were added to wells, serially diluted, and allowed to bind antigen overnight at 4° C. The following day, the primary antibodies were removed and anti-human kappa light chain antibody conjugated to horseradish peroxidase diluted 1:10,000 in blocking buffer were added to wells and incubated for 1 hour at room temperature. Plates were washed with PBS+0.05% Tween-20 and 100 μL of TMB substrate solution was added to wells to generate a colorimetric signal proportional to amount of anti-SIRPβ1 antibody bound to antigen. Once the reaction reached an appropriate color intensity, 100 μL of Stop solution was added to quench the enzyme.
Eight anti-SIRPβ1 antibodies (four parental antibodies and four corresponding affinity matured antibodies) were selected for analysis.
Turning to B2, the binding result is reported as “no binding (tested: 1 ug/mL)”.
On the same count and under the same terms, to B3 belongs “no binding (tested: 1 ug/mL)”.
The same measure, in the same setting: to B6 belongs “no binding (tested: 1 ug/mL)”.

In the next test the target is T2, mouse SIRPα on cells. Description: flow cytometry.
With B6, the binding result is given as “no binding (tested: 1 ug/ml)”.

Another test concerns the target T1, mouse SIRPβ1 on CHO cells. Description: flow cytometry. This is another data set of the same source.
As to B1, the binding result was “no binding (tested: 1 ug/ml)”.
On the same count and under the same terms, the same measure for B2: “no binding (tested: 1 ug/ml)”; for B3: “no binding (tested: 1 ug/ml)”; for B4: “no binding (tested: 1 ug/ml)”.
For B5, the binding result was “no binding (tested: 1 ug/ml)”.
For the molecule B6, the binding result is reported as “no binding (tested: 1 ug/ml)”.

In the next test the target is T7, human SIRPα on cells. Description: flow cytometry. This is another data set of the same source.
For the molecule B2, the binding result is reported as “no binding (tested: 1 ug/ml)”.
Regarding B3, the binding result is “no binding (tested: 1 ug/ml)”.

Another test has as its target T6, human SIRPβ1 isoform 1 on cells. Description: flow cytometry titration, BWZ-huSIRPβ1 cells.
Description: as §2
In Table 14 below, EC50 values assign relative affinity by adding increasing concentrations of antibody variants to cells overexpressing SIRPβ 1. Receptor bound antibodies were detected by staining cells with anti-human IgG PE secondary antibody (Southern Biotech). Curves were fit using nonlinear regression analysis with Graphpad Prism 6 software.
Molecule B7 showed a concentration giving a half-maximal response (EC50) of 0.477 nM.
With B1, the concentration giving a half-maximal response (EC50) came out at 8.7 nM.
For B4, the EC50 amounted to 0.0284 nM.
With B5, the midpoint of the response, the EC50, lay at 0.596 nM.

The target in a further test is T3, mouse SIRPα D1-Fc. Description: Octet.
Description: Briefly, Octet affinity measurements were performed by loading IgGs on-line onto AHQ sensors. Sensors were equilibrated off-line in assay buffer for 30 min and then monitored on-line for 60 seconds for baseline establishment. For avid binding measurement, sensors with loaded IgGs were exposed to 100 nM antigen (human SIRPα domain 1 (D1) Fc fusion or SIRPβ1 domain 1 (D1) Fc fusion) for 3 min, and then transferred to assay buffer for 3 min for off-rate measurement. Additional avid binding was determined by loading biotinylated SIRPβ1 monomer on SA sensors and exposing to 100 nM IgG in solution. Monovalent binding measurements were obtained by loading human SIRPα- or SIRPβ1-Fc fusion antigens onto AHQ sensor, followed by exposure to 100 nM anti-SIRPβ1 antibody Fab. Additional monovalent measurements were made by loading biotinylated human SIRPα or SIRPβ1 monomer to SA sensor followed by exposure to 100 nM Fab in solution. Kinetics data were fit using a 1:1 binding model in the data analysis software provided by ForteBio (ForteBio Data Analysis Software 7.0).
Consider B6, for which the binding result is “no binding (tested: 100 nM)”.

Another test deals with T9, SIRPγ on Jurkat cells (human, UniProt Q9P1W8 29-387).
T9 construct: whole, on cells
T9 sequence (Q9P1W8 29-387): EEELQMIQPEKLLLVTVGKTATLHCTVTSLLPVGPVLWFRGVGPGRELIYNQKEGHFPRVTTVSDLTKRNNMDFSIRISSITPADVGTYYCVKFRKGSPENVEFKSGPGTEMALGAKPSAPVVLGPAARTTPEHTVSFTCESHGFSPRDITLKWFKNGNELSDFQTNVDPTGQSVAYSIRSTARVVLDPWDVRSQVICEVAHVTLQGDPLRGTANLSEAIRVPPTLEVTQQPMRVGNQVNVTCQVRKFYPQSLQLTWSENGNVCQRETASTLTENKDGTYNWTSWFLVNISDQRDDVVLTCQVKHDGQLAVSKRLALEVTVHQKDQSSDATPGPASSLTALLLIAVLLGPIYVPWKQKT
Description: flow cytometry on Jurkat cells (endogenous SIRPγ), fold over isotype (MFI).
Description: as §1, §2, §3
Consider B1, for which the binding result was “no binding (tested: Log nM about 1.8 (about 60 nM))”.
With B4, the binding result was “no binding (tested: Log nM about 1.8 (about 60 nM))”.
Take B5: the binding result was “no binding (tested: Log nM about 1.8 (about 60 nM))”.

The target in a further test is T10, Soluble, human SIRPβ1-Fc isoform 1 (O00241) (human, UniProt O00241 30-371, limits assumed).
T10 construct: Whole entry named; also called human SIRPβ1 isoform 1
T10 sequence (O00241 30-371 limits assumed, one chain of several): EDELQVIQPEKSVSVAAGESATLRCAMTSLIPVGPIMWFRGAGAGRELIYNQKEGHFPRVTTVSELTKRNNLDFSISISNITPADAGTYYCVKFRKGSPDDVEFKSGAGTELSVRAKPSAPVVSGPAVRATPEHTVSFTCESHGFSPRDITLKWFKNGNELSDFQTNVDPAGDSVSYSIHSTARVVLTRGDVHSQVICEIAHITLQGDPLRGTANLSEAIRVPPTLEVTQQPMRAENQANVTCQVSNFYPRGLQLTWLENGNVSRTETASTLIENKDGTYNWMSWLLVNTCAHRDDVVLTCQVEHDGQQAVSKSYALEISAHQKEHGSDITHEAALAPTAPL
Description: ELISA, antigen coated.
B2 showed an EC50 of 0.045 nM.
As to B3, the EC50 turned out to be 0.029 nM.
On to B6, for which the concentration for a half-maximal effect (EC50) worked out at 0.022 nM.

The next test concerns the target T2, mouse SIRPα on cells. Description: flow cytometry. This is another data set of the same source.
On to B6, for which the FOB came out at 1.2 fold over background.

Another test deals with T6, human SIRPβ1 isoform 1 on cells. Description: flow cytometry. The source holds these as a separate data set.
In turn, B6 displayed an FOB of 4.1 fold over background.

The target in another test is T1, mouse SIRPβ1 on CHO cells. Description: flow cytometry. The source holds these as a separate data set.
Molecule B6 returned an FOB of 1.7 fold over background.

Another test addresses T7, human SIRPα on cells. Description: flow cytometry. The source holds these as a separate data set.
Turning to B6, the FOB came out at 2.1 fold over background.

For the origin of these results see patent US20250026827A1 (Alector, published 2025).
